Test results: patent US20190062420A1 (Janssen / Centocor, published 2019)

B1: OX40SF2IgG2sigma_R2BS29_HC-C (bispecific antibody)
heavy: QVQLVQSGAEVKKPGSSVKVSCKASGYTFKDYTMHWVRQAPGQGLEWIGGIYPNNGGSTYNQNFKDRVTLTADKSTSTAYMELSSLRSEDTAVYYCARMGYHGPHLDFDVWGQGTTVTVSSASTKGPSVFPLAPCSRSTSESTAALGCLVKDYFPEPVTVSWNSGALTSGVHTFPAVLQSSGLYSLSSVVTVPSSNFGTQTYTCNVDHKPSNTKVDKTVERKCCVECPPCPAPPAAASSVFLFPPKPKDTLMISRTPEVTCVVVDVSAEDPEVQFNWYVDGVEVHNAKTKPREEQFNSTFRVVSVLTVLHQDWLNGKEYKCKVSNKGLPSSIEKTISKTKGQPREPQVYTLPPSREEMTKNQVSLTCLVKGFYPSDIAVEWESNGQPENNYKTTPPMLDSDGSFFLYSKLTVDKSRWQQGNVFSCSVMHEALHNHYTQKSLSLSPGKGGGGGSGGGGSGGGGSGGGGSLPAPKNLVVSRVTEDSARLSWTAPDAAFDSFPIYYWEYRVGGEAIVLTVPGSERSYDLTGLKPGTEYFVYINGVKGGEESRPLSAIFTT
light: DIQMTQSPSSLSASVGDRVTITCKASQDVGAAVAWYQQKPGKAPKLLIYWASTRHTGVPSRFSGSGSGTDFTLTISSLQPEDFATYYCQQYINYPLTFGGGTKVEIKRTVAAPSVFIFPPSDEQLKSGTASVVCLLNNFYPREAKVQWKVDNALQSGNSQESVTEQDSKDSTYSLSSTLTLSKADYEKHKVYACEVTHQGLSSPVTKSFNRGEC
notes: mAbtyrin: anti-OX40 antibody OX40SF2, effector silent IgG2sigma, with linker and R2BS29 FN3 domain at the C-terminus of the heavy chain; also called mAbtyrin
B2: OX40SF2IgG2sigma (antibody)
heavy: QVQLVQSGAEVKKPGSSVKVSCKASGYTFKDYTMHWVRQAPGQGLEWIGGIYPNNGGSTYNQNFKDRVTLTADKSTSTAYMELSSLRSEDTAVYYCARMGYHGPHLDFDVWGQGTTVTVSSASTKGPSVFPLAPCSRSTSESTAALGCLVKDYFPEPVTVSWNSGALTSGVHTFPAVLQSSGLYSLSSVVTVPSSNFGTQTYTCNVDHKPSNTKVDKTVERKCCVECPPCPAPPAAASSVFLFPPKPKDTLMISRTPEVTCVVVDVSAEDPEVQFNWYVDGVEVHNAKTKPREEQFNSTFRVVSVLTVLHQDWLNGKEYKCKVSNKGLPSSIEKTISKTKGQPREPQVYTLPPSREEMTKNQVSLTCLVKGFYPSDIAVEWESNGQPENNYKTTPPMLDSDGSFFLYSKLTVDKSRWQQGNVFSCSVMHEALHNHYTQKSLSLSPGK
light: B1 light
notes: Anti-OX40 antibody, IgG2 sigma isotype (effector silent Fc: V234A, G237A, P238S, H268A, V309L, A330S, P331S against wild type IgG2); control without FN3 domain; also called parental antibody; parental OX40 antibody
B3: OX40SF2IgG1 (antibody)
heavy: not shown
light: B1 light
notes: Anti-OX40 antibody, wild-type IgG1; control without FN3 domain

Assays:
[1] = target: T1, human FcγRIIB (NM_004001) expressed on cells (human, UniProt P31994 43-310); assay: flow cytometry; Raji cells (express predominantly FcγRIIB)
T1 construct: Transiently expressed on Expi293F cells; also called Expi293F FcγRIIB; HEK293F cells expressing FcγRIIB
T1 sequence: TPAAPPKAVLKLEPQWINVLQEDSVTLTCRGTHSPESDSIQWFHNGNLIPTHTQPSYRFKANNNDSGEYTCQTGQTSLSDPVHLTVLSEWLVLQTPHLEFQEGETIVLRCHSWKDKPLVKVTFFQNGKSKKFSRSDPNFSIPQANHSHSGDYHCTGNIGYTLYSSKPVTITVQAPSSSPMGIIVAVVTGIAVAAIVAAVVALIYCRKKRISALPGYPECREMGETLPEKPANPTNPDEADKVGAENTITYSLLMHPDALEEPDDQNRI

[2] = target: T2, human FcγRIIA (NM_021642) expressed on cells (human, UniProt P12318 36-317); assay: flow cytometry; Expi293F cells transfected with FcγRIIA
T2 construct: Transiently expressed on Expi293F cells; also used here for FcγRIIA on human macrophages in the ADCP assay; also called Expi293F FcγRIIA; HEK293F cells expressing FcγRIIA
T2 sequence: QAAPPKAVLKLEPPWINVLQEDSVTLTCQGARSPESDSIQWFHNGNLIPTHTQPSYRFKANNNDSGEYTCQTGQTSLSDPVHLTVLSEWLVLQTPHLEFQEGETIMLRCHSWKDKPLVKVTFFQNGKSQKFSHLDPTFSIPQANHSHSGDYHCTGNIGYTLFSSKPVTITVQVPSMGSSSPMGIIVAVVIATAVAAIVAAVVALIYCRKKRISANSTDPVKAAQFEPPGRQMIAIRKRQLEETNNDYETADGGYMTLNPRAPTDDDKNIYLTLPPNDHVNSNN
Method: (§1) Plasmids expressing cDNAs encoding human FcγRI (NM_000566) (SEQ ID NO: 44), FcγRIIA (NM_021642) (SEQ ID NO: 2), FcγRIIB (NM_004001) (SEQ ID NO: 3), and FcγRIIIA (NM_000569) (SEQ ID NO: 45) (Origene) were transiently transfected into Expi293F cells by ExpiFectamine293 transfection kit (Life Technologies). Flow cytometry assays were performed 48 h after transfection.
(§2) 2×10⁵ cells per well were seeded in 96-well plate and blocked in BSA Stain Buffer (BD Biosciences, San Jose, USA) for 30 min at 4° C. Cells were incubated with test mAbtyrin on ice for 1.5 h at 4° C. After being washed twice with BSA stain buffer, the cells were incubated with R-PE labeled anti-human or anti-mouse IgG secondary antibody (Jackson Immunoresearch Laboratories) for 45 min at 4° C. The cells were washed twice in stain buffer and then resuspended in 150 μL of Stain Buffer containing 1:200 diluted DRAQ7 live/dead stain (Cell Signaling Technology, Danvers, USA). PE and DRAQ7 signals of the stained cells were detected by Miltenyi MACSQuant flow cytometer (Miltenyi Biotec, Auburn, USA) using B2 and B4 channel respectively. Live cells were gated on DRAQ7 exclusion and the geometric mean fluorescence signals were determined for at least 10,000 live events collected. FlowJo software (Tree Star) was used for analysis. Data was plotted as the logarithm of antibody concentration versus mean fluorescence signals. Nonlinear regression analysis was performed by GraphPad Prism 6 (GraphPad Software, Inc.) and EC₅₀ values were calculated.

[3] = target: T1, human FcγRIIB (NM_004001) expressed on …; assay: flow cytometry; Expi293F cells transfected with FcγRIIB
Method: as §1, §2

[4] = target: T1, human FcγRIIB (NM_004001) expressed on …; assay: flow cytometry; Raji cells (express predominantly FcγRIIB); remark: listed apart in the source
Method: as §2
Raji cell is a cell line derived from B cells that express predominantly FcγRIIB. The binding of mAbtyrins on Raji cells were investigated by flow cytometry assay described for testing mAbtyrin binding to FcγR. Binding of the mAbtyrins were detected by flow cytometry using a PE-labeled Goat F(ab′) against Human IgG(γ).

[5] = target: T3, FcγRIIA protein (human, UniProt P12318 36-217, biotinylated (SureLINK Biotin Kit) in the ELISA of Example 1); assay: ELISA; FcγRIIA protein coated on plate, anti-human IgG-HRP detection
T3 construct: Soluble/recombinant antigen used in ELISA; also called bt-FcγRIIA; recombinant FcγRIIA protein
T3 sequence: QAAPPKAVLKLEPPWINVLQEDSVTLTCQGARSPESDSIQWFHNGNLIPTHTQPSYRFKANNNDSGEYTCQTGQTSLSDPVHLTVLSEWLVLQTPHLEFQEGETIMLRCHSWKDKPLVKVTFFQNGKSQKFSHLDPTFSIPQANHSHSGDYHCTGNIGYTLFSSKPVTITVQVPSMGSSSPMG
Method: Effect of the mAbtyrins on T cell activation was evaluated. Briefly, recombinant FcγRIIB or FcγRIIA protein was coated on the plate to provide the crosslinking activity. For T cell activation assay, 100 μL of 30 ng/mL anti-CD3 antibody (OKT3) and 1 μg/mL FcγRIIB or FcγRIIA protein in DPBS were coated in U-bottomed 96-well tissue culture plate overnight. CD4 positive T cells were isolated from PBMC by negative selection. OX40 expression was induced by culturing the isolated T cells in the presence of 1 μg/mL PHA overnight. On the assay day, the coating solution in the plate were aspirated and 150 μL RPMI media was added to block the plate. The cultured T cells were washed three times by RPMI culture media and between 25,000 to 50,000 CD4 positive T cells were seeded in each well in the assay plate. Test mAbtyrins were added to the cells and the plate was incubated for 3 days. T cell activation was assessed by the induction of IFNγ or TNFα production, which was quantitated by human IFNγ or TNFα ELISA detection kit (Biolegend). Prior to T cell activation assay, the binding affinity of mAbtyrins to immobilized FcγRIIB or FcγRIIA protein were evaluated by an ELISA assay. […] The binding of mAbtyrins to immobilized FcγRIIB or FcγRIIA protein were detected by HRP-conjugated anti-Human IgG(γ) secondary antibody and quantitated by ELISA assay using TMB substrate.

| Binder | fold binding signal over OX40SF2IgG2sigma at 10 µg/mL [1] | EC50 [2] | EC50 [3] | EC50 [4] | binding result [5] |
| --- | --- | --- | --- | --- | --- |
| B1 | ≥ 6 fold | 0.066 mg/L | 1.52 mg/L | 1.44 mg/L |  |
| B2 |  |  |  | > 10 mg/L | no binding |
| B3 |  | 3.3 mg/L |  |  |  |
